Here are results for twelve molecules from US8936925B2, “Reconstitution of 5-enolpyruvylshikimate-3-phosphate synthase activity by fragment complementation” (priority 2004, dated 2015).

The labels stand for the following.
B1: C74: E. coli EPSPS C-terminal fragment, residue 74 to C-terminus (protein, UniProt P0A6D3 74-427, looked up, fragment)
chain: EIIGNGGPLHAEGALELFLGNAGTAMRPLAAALCLGSNDIVLTGEPRMKERPIGHLVDALRLGGAKITYLEQENYPPLRLQGGFTGGNVDVDGSVSSQFLTALLMTAPLAPEDTVIRIKGDLVSKPYIDITLNLMKTFGVEIENQHYQQFVVKGGQSYQSPGTYLVEGDASSASYFLAAAAIKGGTVKVTGIGRNSMQGDIRFADVLEKMGATICWGDDYISCTRGELNAIDMDMNHIPDAAMTIATAALFAKGTTTLRNIYNWRVKETDRLFAMATELRKVGAEVEEGHDYIRITPPEKLNFAEIATYNDHRMAMCFSLVALSDTPVTILDPKCTAKTFPDYFEQLARISQAA
B2: C260: E. coli EPSPS C-terminal fragment, residue 260 to C-terminus (protein, UniProt P0A6D3 260-427, looked up, fragment)
chain: VKVTGIGRNSMQGDIRFADVLEKMGATICWGDDYISCTRGELNAIDMDMNHIPDAAMTIATAALFAKGTTTLRNIYNWRVKETDRLFAMATELRKVGAEVEEGHDYIRITPPEKLNFAEIATYNDHRMAMCFSLVALSDTPVTILDPKCTAKTFPDYFEQLARISQAA
B3: C299: E. coli EPSPS C-terminal fragment, residue 299 to C-terminus (protein, UniProt P0A6D3 299-427, looked up, fragment)
chain: GELNAIDMDMNHIPDAAMTIATAALFAKGTTTLRNIYNWRVKETDRLFAMATELRKVGAEVEEGHDYIRITPPEKLNFAEIATYNDHRMAMCFSLVALSDTPVTILDPKCTAKTFPDYFEQLARISQAA
B4: C32: E. coli EPSPS C-terminal fragment, residue 32 to C-terminus (protein, UniProt P0A6D3 32-427, looked up, fragment)
chain: AALAHGKTVLTNLLDSDDVRHMLNALTALGVSYTLSADRTRCEIIGNGGPLHAEGALELFLGNAGTAMRPLAAALCLGSNDIVLTGEPRMKERPIGHLVDALRLGGAKITYLEQENYPPLRLQGGFTGGNVDVDGSVSSQFLTALLMTAPLAPEDTVIRIKGDLVSKPYIDITLNLMKTFGVEIENQHYQQFVVKGGQSYQSPGTYLVEGDASSASYFLAAAAIKGGTVKVTGIGRNSMQGDIRFADVLEKMGATICWGDDYISCTRGELNAIDMDMNHIPDAAMTIATAALFAKGTTTLRNIYNWRVKETDRLFAMATELRKVGAEVEEGHDYIRITPPEKLNFAEIATYNDHRMAMCFSLVALSDTPVTILDPKCTAKTFPDYFEQLARISQAA
B5: C68: E. coli EPSPS C-terminal fragment, residue 68 to C-terminus (protein, UniProt P0A6D3 68-427, looked up, fragment)
chain: ADRTRCEIIGNGGPLHAEGALELFLGNAGTAMRPLAAALCLGSNDIVLTGEPRMKERPIGHLVDALRLGGAKITYLEQENYPPLRLQGGFTGGNVDVDGSVSSQFLTALLMTAPLAPEDTVIRIKGDLVSKPYIDITLNLMKTFGVEIENQHYQQFVVKGGQSYQSPGTYLVEGDASSASYFLAAAAIKGGTVKVTGIGRNSMQGDIRFADVLEKMGATICWGDDYISCTRGELNAIDMDMNHIPDAAMTIATAALFAKGTTTLRNIYNWRVKETDRLFAMATELRKVGAEVEEGHDYIRITPPEKLNFAEIATYNDHRMAMCFSLVALSDTPVTILDPKCTAKTFPDYFEQLARISQAA
B6: N67: E. coli EPSPS N-terminal fragment, N-terminus to residue 67 (protein, UniProt P0A6D3 1-67, looked up, fragment)
chain: MESLTLQPIARVDGTINLPGSKSVSNRALLLAALAHGKTVLTNLLDSDDVRHMLNALTALGVSYTLS
B7: N376: E. coli EPSPS N-terminal fragment, N-terminus to residue 376 (protein, UniProt P0A6D3 1-376, looked up, fragment)
chain: MESLTLQPIARVDGTINLPGSKSVSNRALLLAALAHGKTVLTNLLDSDDVRHMLNALTALGVSYTLSADRTRCEIIGNGGPLHAEGALELFLGNAGTAMRPLAAALCLGSNDIVLTGEPRMKERPIGHLVDALRLGGAKITYLEQENYPPLRLQGGFTGGNVDVDGSVSSQFLTALLMTAPLAPEDTVIRIKGDLVSKPYIDITLNLMKTFGVEIENQHYQQFVVKGGQSYQSPGTYLVEGDASSASYFLAAAAIKGGTVKVTGIGRNSMQGDIRFADVLEKMGATICWGDDYISCTRGELNAIDMDMNHIPDAAMTIATAALFAKGTTTLRNIYNWRVKETDRLFAMATELRKVGAEVEEGHDYIRITPPEKLNF
B8: N298: E. coli EPSPS N-terminal fragment, N-terminus to residue 298 (protein, UniProt P0A6D3 1-298, looked up, fragment)
chain: MESLTLQPIARVDGTINLPGSKSVSNRALLLAALAHGKTVLTNLLDSDDVRHMLNALTALGVSYTLSADRTRCEIIGNGGPLHAEGALELFLGNAGTAMRPLAAALCLGSNDIVLTGEPRMKERPIGHLVDALRLGGAKITYLEQENYPPLRLQGGFTGGNVDVDGSVSSQFLTALLMTAPLAPEDTVIRIKGDLVSKPYIDITLNLMKTFGVEIENQHYQQFVVKGGQSYQSPGTYLVEGDASSASYFLAAAAIKGGTVKVTGIGRNSMQGDIRFADVLEKMGATICWGDDYISCTR
B9: N371: E. coli EPSPS N-terminal fragment, N-terminus to residue 371 (protein, UniProt P0A6D3 1-371, looked up, fragment)
chain: MESLTLQPIARVDGTINLPGSKSVSNRALLLAALAHGKTVLTNLLDSDDVRHMLNALTALGVSYTLSADRTRCEIIGNGGPLHAEGALELFLGNAGTAMRPLAAALCLGSNDIVLTGEPRMKERPIGHLVDALRLGGAKITYLEQENYPPLRLQGGFTGGNVDVDGSVSSQFLTALLMTAPLAPEDTVIRIKGDLVSKPYIDITLNLMKTFGVEIENQHYQQFVVKGGQSYQSPGTYLVEGDASSASYFLAAAAIKGGTVKVTGIGRNSMQGDIRFADVLEKMGATICWGDDYISCTRGELNAIDMDMNHIPDAAMTIATAALFAKGTTTLRNIYNWRVKETDRLFAMATELRKVGAEVEEGHDYIRITPP
B10: N73: E. coli EPSPS N-terminal fragment, N-terminus to residue 73 (protein, UniProt P0A6D3 1-73, looked up, fragment)
chain: MESLTLQPIARVDGTINLPGSKSVSNRALLLAALAHGKTVLTNLLDSDDVRHMLNALTALGVSYTLSADRTRC
B11: N383: E. coli EPSPS N-terminal fragment, N-terminus to residue 383 (protein, UniProt P0A6D3 1-383, looked up, fragment)
chain: MESLTLQPIARVDGTINLPGSKSVSNRALLLAALAHGKTVLTNLLDSDDVRHMLNALTALGVSYTLSADRTRCEIIGNGGPLHAEGALELFLGNAGTAMRPLAAALCLGSNDIVLTGEPRMKERPIGHLVDALRLGGAKITYLEQENYPPLRLQGGFTGGNVDVDGSVSSQFLTALLMTAPLAPEDTVIRIKGDLVSKPYIDITLNLMKTFGVEIENQHYQQFVVKGGQSYQSPGTYLVEGDASSASYFLAAAAIKGGTVKVTGIGRNSMQGDIRFADVLEKMGATICWGDDYISCTRGELNAIDMDMNHIPDAAMTIATAALFAKGTTTLRNIYNWRVKETDRLFAMATELRKVGAEVEEGHDYIRITPPEKLNFAEIATYN
B12: EPSPS-G96A (protein, UniProt P0A6D3 1-427, looked up, variant G96A)
3-phosphoshikimate …: MESLTLQPIARVDGTINLPGSKSVSNRALLLAALAHGKTVLTNLLDSDDVRHMLNALTALGVSYTLSADRTRCEIIGNGGPLHAEGALELFLGNAATAMRPLAAALCLGSNDIVLTGEPRMKERPIGHLVDALRLGGAKITYLEQENYPPLRLQGGFTGGNVDVDGSVSSQFLTALLMTAPLAPEDTVIRIKGDLVSKPYIDITLNLMKTFGVEIENQHYQQFVVKGGQSYQSPGTYLVEGDASSASYFLAAAAIKGGTVKVTGIGRNSMQGDIRFADVLEKMGATICWGDDYISCTRGELNAIDMDMNHIPDAAMTIATAALFAKGTTTLRNIYNWRVKETDRLFAMATELRKVGAEVEEGHDYIRITPPEKLNFAEIATYNDHRMAMCFSLVALSDTPVTILDPKCTAKTFPDYFEQLARISQAA

One assay deals with aroA gene-mutant E. coli strain AB2829. In words: In vivo complementation: growth on solid M63 restrictive medium. The class given is cell-based. On the set-up: key: −: failed to grow; +: able to grow. The conditions noted are these: C-terminal fragment alone. From the text:
The pKU2100 plasmid constructed as described above and corresponding pACYC1184 plasmid were introduced separately or together into the strain AB2829 deficient in E. coli aroA gene. Then, the strain was streaked on solid M63 restrictive medium and cultured overnight to determine the growth.
In order to test if EPSPS achieves fragment complementation after in vivo expression, genes encoding EPSPS N-terminal peptides were constructed into pACYC184, and genes encoding EPSPS C-terminal peptides were constructed into pBR322 (see the section Materials and Methods for the detailed construction method). Afterwards, these plasmids were introduced into aroA gene-mutant E. coli strain AB2829. EPSPS activity of the protein fragments encoded by these genes was determined by the growth of the strains on M63 restrictive medium.
The pACYC184 and pBR322 plasmids are able to be expressed in the same bacterial cell since they have replicons p15A and ColE1 respectively. In this regard, a pACYC184 plasmid was co-introduced into aroA gene-mutant E. coli strain AB2829 together with a corresponding pKU2100 plasmid, wherein the N-terminal peptide encoded by the pACYC184 plasmid and C-terminal peptide encoded by the pKU2100 plasmid are the two fragments divided at the same site from EPSPS. The resulting strains are streaked on M63 restrictive medium, and cultured at 37° C.
The pBR322 plasmids constructed in section 3.5 a and their relevant pACYC1184 plasmids constructed in section 3.5 b were introduced respectively or together into E. coli strain AB2829 deficient in aroA gene. Then the strains were streaked on solid M63 restrictive medium and cultured overnight to test the growth.
B1: the “complementation condition, C-terminal” value is reported as “−”.
Turning to B2, the “complementation condition, C-terminal” value is listed as “−”.
As to B3, the “complementation condition, C-terminal” value was “−”.
For the molecule B4, the “complementation condition, C-terminal” value is recorded as “−”.
For the molecule B5, the “complementation condition, C-terminal” value is reported as “−”.

Staying with this assay, now noted: N-terminal fragment alone.
As for B6, the “complementation condition, N-terminal” value was “−”.
On the same count and under the same terms, the value for B7 was “−”.
Still for that read-out and setting: the value for B8 was “−”; that for B9 was “−”.
Still for that read-out and setting: as for B10, the entry is “−”.
Turning to B11, the “complementation condition, N-terminal” value is on record as “−”.

The next assay has as its system aroA-mutant E. coli strain AB2829. In words: Growth in M63 restrictive media with different concentrations of glyphosate. It is filed as cell-based. The following applies: 50 mM glyphosate. The protocol: aroA gene-mutant E. coli strains AB 2829 carrying plasmid pKU2004, pKU2006 or pKU2007 were inoculated in liquid LB medium and incubated overnight. A sample of the culture was centrifuged at 4000 rpm for 3 min and re-suspended in 0.9% physiological saline. After a further centrifugation, the supernatant was discarded. The pellets were re-suspended in physiological saline and inoculated at an initial concentration of OD600 0.04 into a liquid media comprising 0, 50 or 100 mM glyphosate for overnight culture at 37° C. Absorption (OD600) was measured at intervals.
In order to test whether the mutated EPSPS fragments perform functional complementation in vivo, plasmid pKU2105 and pKU2333 were constructed, which encode the N-terminal fragments N218-G96A and N227-G96A of E. coli EPSPS, respectively. They were introduced into aroA-mutant E. coli strain AB2829 (aroA−, from Yale University) together with their corresponding plasmids encoding C219 and C228 respectively. The growth was detected in the M63 restrictive media with different concentrations of glyphosate.
Regarding B12, the “growth in M63 medium containing 50 mM glyphosate” value is “grew well”.

The assay is the same for the next values; noted with them: 100 mM glyphosate.
On to B12, for which the “growth in M63 medium containing 100 mM glyphosate” value is listed as “still grew well”.
